Article PMC12416549 (2024)

T1: TNFR1 (Homo sapiens, UniProt P19438)
T1 chain: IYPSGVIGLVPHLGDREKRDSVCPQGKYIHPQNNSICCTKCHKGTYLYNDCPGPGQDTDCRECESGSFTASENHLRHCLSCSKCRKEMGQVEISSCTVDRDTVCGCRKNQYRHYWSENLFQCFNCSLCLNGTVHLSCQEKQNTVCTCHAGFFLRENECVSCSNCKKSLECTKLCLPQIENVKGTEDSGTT


Molecular target: T1, TNFR1
Test: yeast display SC50

| apparent Kd (screen) [nM] | Binder |
| --- | --- |
| 0.869 | A105W (designed binder) MTLQELLREEALRRAEAEAFRYALELLAEKFPEQKEYLLDLAEEIESQIRSLSGVDVEDVRKFLDKEWAWVKELLAEHPAELAEVEAARAARLAELRAEVEAKVWA |
| 0.405 | E9C (designed binder) MTLQELLRCEALRRAEAEAFRYALELLAEKFPEQKEYLLDLAEEIESQIRSLSGVDVEDVRKFLDKEWAWVKELLAEHPAELAEVEAARAARLAELRAEVEAKVAA |
| 0.653 | R97L (designed binder) MTLQELLREEALRRAEAEAFRYALELLAEKFPEQKEYLLDLAEEIESQIRSLSGVDVEDVRKFLDKEWAWVKELLAEHPAELAEVEAARAARLAELLAEVEAKVAA |
| 0.956 | G54S (designed binder) MTLQELLREEALRRAEAEAFRYALELLAEKFPEQKEYLLDLAEEIESQIRSLSSVDVEDVRKFLDKEWAWVKELLAEHPAELAEVEAARAARLAELRAEVEAKVAA |
| 0.869 | K72R (designed binder) MTLQELLREEALRRAEAEAFRYALELLAEKFPEQKEYLLDLAEEIESQIRSLSGVDVEDVRKFLDKEWAWVRELLAEHPAELAEVEAARAARLAELRAEVEAKVAA |
| 1.27 | E86R (designed binder) MTLQELLREEALRRAEAEAFRYALELLAEKFPEQKEYLLDLAEEIESQIRSLSGVDVEDVRKFLDKEWAWVKELLAEHPAELAEVRAARAARLAELRAEVEAKVAA |
| 0.593 | R61T (designed binder) MTLQELLREEALRRAEAEAFRYALELLAEKFPEQKEYLLDLAEEIESQIRSLSGVDVEDVTKFLDKEWAWVKELLAEHPAELAEVEAARAARLAELRAEVEAKVAA |
| 0.869 | A90F (designed binder) MTLQELLREEALRRAEAEAFRYALELLAEKFPEQKEYLLDLAEEIESQIRSLSGVDVEDVRKFLDKEWAWVKELLAEHPAELAEVEAARFARLAELRAEVEAKVAA |

Continued, binder first:

| Binder | apparent Kd (screen) [nM] |
| --- | --- |
| E36C (designed binder) MTLQELLREEALRRAEAEAFRYALELLAEKFPEQKCYLLDLAEEIESQIRSLSGVDVEDVRKFLDKEWAWVKELLAEHPAELAEVEAARAARLAELRAEVEAKVAA | 0.539 |
| E67K (designed binder) MTLQELLREEALRRAEAEAFRYALELLAEKFPEQKEYLLDLAEEIESQIRSLSGVDVEDVRKFLDKKWAWVKELLAEHPAELAEVEAARAARLAELRAEVEAKVAA | 2.73 |
| A80V (designed binder) MTLQELLREEALRRAEAEAFRYALELLAEKFPEQKEYLLDLAEEIESQIRSLSGVDVEDVRKFLDKEWAWVKELLAEHPVELAEVEAARAARLAELRAEVEAKVAA | 0.869 |
| S51K (designed binder) MTLQELLREEALRRAEAEAFRYALELLAEKFPEQKEYLLDLAEEIESQIRKLSGVDVEDVRKFLDKEWAWVKELLAEHPAELAEVEAARAARLAELRAEVEAKVAA | 1.27 |
| S51P (designed binder) MTLQELLREEALRRAEAEAFRYALELLAEKFPEQKEYLLDLAEEIESQIRPLSGVDVEDVRKFLDKEWAWVKELLAEHPAELAEVEAARAARLAELRAEVEAKVAA | 0.593 |
| R50F (designed binder) MTLQELLREEALRRAEAEAFRYALELLAEKFPEQKEYLLDLAEEIESQIFSLSGVDVEDVRKFLDKEWAWVKELLAEHPAELAEVEAARAARLAELRAEVEAKVAA | 1.16 |
